This note sets out measurements from US20250388683A1 (VETOQUINOL, published 2025).

The target in test [1] is T1, canine IL-31RA expressed on HEK-Blue STAT3 canine IL-31R reporter cells (with canine OSMR) (canine). The test is described as follows: cell-based or functional assay.
Test [2] deals with T1, canine IL-31RA expressed on HEK-Blue …. Description: cell-based or functional assay. This is another data set of the same source.
The target is the same in test [3]. Description: cell-based or functional assay. The source holds these as a separate data set.
The target is the same in test [4]. Description: cell-based or functional assay. This is another data set of the same source.
Test [5] has the same target. Description: cell-based or functional assay. The source holds these as a separate data set.
For test [6] the target is unchanged. Description: cell-based or functional assay. This is another data set of the same source.
The target is the same in test [7]. Description: cell-based or functional assay. The source holds these as a separate data set.
For test [8] the target is unchanged. The test is described as follows: cell-based or functional assay. This is another data set of the same source.
The target is the same in test [9]. The test is described as follows: cell-based or functional assay. The source holds these as a separate data set.
For test [10] the target is unchanged. The test is described as follows: cell-based or functional assay. This is another data set of the same source.
Test [11] has the same target. Description: cell-based or functional assay. This is another data set of the same source.
Test [12] has the same target. The test is described as follows: cell-based or functional assay. The source holds these as a separate data set.
The target is the same in test [13]. The test is described as follows: cell-based or functional assay. This is another data set of the same source.
Test [14] addresses T2, human IL31RA protein (Acrobiosystem, Cat:ILA-H5256) (human, UniProt Q8NI17 20-519, limits assumed).
T2 construct: Bought; loaded on protein A sensor tips; also called hIL-31RA; hIL31R
T2 sequence (looked up): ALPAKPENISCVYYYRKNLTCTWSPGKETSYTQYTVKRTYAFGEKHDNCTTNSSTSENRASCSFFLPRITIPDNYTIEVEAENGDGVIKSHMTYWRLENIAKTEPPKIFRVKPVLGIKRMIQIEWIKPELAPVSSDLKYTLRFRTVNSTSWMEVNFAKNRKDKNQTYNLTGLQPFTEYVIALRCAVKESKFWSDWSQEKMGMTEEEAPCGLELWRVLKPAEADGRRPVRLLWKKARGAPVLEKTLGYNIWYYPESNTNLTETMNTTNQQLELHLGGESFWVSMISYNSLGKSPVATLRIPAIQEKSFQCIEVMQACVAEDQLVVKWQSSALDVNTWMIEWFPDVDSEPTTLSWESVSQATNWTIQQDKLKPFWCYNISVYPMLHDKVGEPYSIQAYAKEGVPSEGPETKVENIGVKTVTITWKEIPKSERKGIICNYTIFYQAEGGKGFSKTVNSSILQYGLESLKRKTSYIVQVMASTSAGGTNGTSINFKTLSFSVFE
Description: Octet K2 BLI, receptor loaded on protein A tips, antibody in solution. The method, then:
(§1) Binding of the purified antibodies to cECD-IL-31RA was analyzed using the Octet system (BLI technology, Fortebio). Octet K2 instrument was used to measure the binding kinetics of either canine IL-31RA (cIL-31RA) or human IL31RA (hIL-31RA) to 8DE and 3F1 antibodies. cIL-31RA (see example 1) or hIL31R proteins (Acrobiosystem, Cat:ILA-H5256) were attached to the surface of the protein A (fortéBio, Part No: 18-5013) sensor tip (5 ug/ml, 200 ul, 120 sec). […] Then, the antibodies were allowed to dissociate for 600 seconds. All the dilutions were made in PBS-Tween (0.05%) solution. The measurement was corrected for baseline drift by subtracting a control sensor exposed to running buffer (PBS-Tween, 0.05%) only. Data analysis and curve fitting were carried out using the own software (local fitting, 1:1 Langmuir model) of the device.

Test [15] deals with T3, Recombinant extra cellular domain of canine IL-31 receptor A (cECD-IL-31RA), His-tagged (canine).
T3 construct: also called cIL-31RA; cIL31r
T3 chain: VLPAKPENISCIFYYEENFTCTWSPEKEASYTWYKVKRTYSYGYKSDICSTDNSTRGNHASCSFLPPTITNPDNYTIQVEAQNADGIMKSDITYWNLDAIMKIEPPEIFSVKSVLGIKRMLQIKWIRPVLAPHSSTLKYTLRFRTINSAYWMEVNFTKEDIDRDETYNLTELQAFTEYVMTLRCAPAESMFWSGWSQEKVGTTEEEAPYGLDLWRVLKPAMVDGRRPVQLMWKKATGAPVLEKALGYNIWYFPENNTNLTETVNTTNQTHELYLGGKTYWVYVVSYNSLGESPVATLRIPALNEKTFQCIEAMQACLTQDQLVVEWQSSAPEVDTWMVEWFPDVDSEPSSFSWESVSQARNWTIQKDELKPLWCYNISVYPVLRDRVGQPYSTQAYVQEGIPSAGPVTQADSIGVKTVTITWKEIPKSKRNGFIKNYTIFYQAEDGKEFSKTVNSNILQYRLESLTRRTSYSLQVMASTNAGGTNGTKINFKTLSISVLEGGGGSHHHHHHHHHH
The test is described as follows: Octet K2 BLI, cIL-31RA loaded on protein A tips, antibody at 15.6, 3.91, 0.98 nM, 1:1 Langmuir local fit. As for the experimental part: as §1
A general note: Biolayer interferometry detects binding as a change in optical thickness at a sensor tip.

Like-named read-outs stand apart in the source and are kept apart here. Bounds are passed on as bounds.

B1: scFv-VTQ2101-LHλcap-Fc (scFv-VTQ2101-LHλcap-GS18-Canine IgG2B-LALAPG-Fc) (Fc fusion)
scFv: RIVMTQSPGSLAGSVGESVSINCKSSQSVTNDLTWYQQKPGEAPKVLITYASQRYTGVPARFSGSGYGTDFTLTINNLQAEDVGDYFCQQDYASPFTFGGGTKLTVLGGSTSGGGSGGGSGGGGSSEVTLQESGPGLVKPSQTLSLTCVASGFSIKSSFIHWLRQRPGRGLEWIGRIDPAFGATEYNPAFQGRFSITADTAKNQASLQLSSMTTEDSAVYYCARYHYAASHFDAWGQGTLVTVSSPKRENGRVPRPPDCPKCPAPEAAGGPSVFIFPPKPKDTLLIARTPEVTCVVVDLDPEDPEVQISWFVDGKQMQTAKTQPREEQFNGTYRVVSVLPIGHQDWLKGKQFTCKVNNKALGSPIERTISKARGQAHQPSVYVLPPSREELSKNTVSLTCLIKDFFPPDIDVEWQSNGQQEPESKYRTTPPQLDEDGSYFLYSKLSVDKSRWQRGDTFICAVMHEALHNHYTQESLSHSPG
B1: the “IC50 ratio (IC50 candidate/IC50 VTQ2101)” value in test [1] is 1.7 ratio. Further, in test [2], the “IC50 (read off the curve); STAT3-SEAP reporter, canine IL-31 stimulation” value (“IC50 (read off the curve)” for short) was roughly 1 nM.

B2: scFv-HLλcap-Fc-VTQ2102 (scFv-VTQ2102-HLλcap-GS18-Canine IgG2B-LALAPG-Fc) (Fc fusion)
scFv: EVTLQESGPGLVKPSQTLSLTCVASGFSIKSSFIHWLRQRPGRGLEWIGRIDPAFGATEYNPAFQGRFSITADTAKNQASLQLSSMTTEDSAVYYCARYHYAASHFDAWGQGTLVTVSSGSTSGGGSGGGSGGGGSSRIVMTQSPGSLAGSVGESVSINCKSSQSVTNDLTWYQQKPGEAPKVLITYASQRYTGVPARFSGSGYGTDFTLTINNLQAEDVGDYFCQQDYASPFTFGGGTKLTVLGPKRENGRVPRPPDCPKCPAPEAAGGPSVFIFPPKPKDTLLIARTPEVTCVVVDLDPEDPEVQISWFVDGKQMQTAKTQPREEQFNGTYRVVSVLPIGHQDWLKGKQFTCKVNNKALGSPIERTISKARGQAHQPSVYVLPPSREELSKNTVSLTCLIKDFFPPDIDVEWQSNGQQEPESKYRTTPPQLDEDGSYFLYSKLSVDKSRWQRGDTFICAVMHEALHNHYTQESLSHSPG
For the molecule B2, the “IC50 ratio (IC50 candidate/IC50 VTQ2101)” value in [1] was 1.5 ratio. Moreover, the “IC50 (read off the curve)” value in [3] is roughly 1 nM.

B3: 8D3-VHL/8D3-VLH caninized antibody (VTQ2101) (antibody, V domains shown)
VH: EVTLQESGPGLVKPSQTLSLTCVASGFSIKSSFIHWLRQRPGRGLEWIGRIDPAFGATEYNPAFQGRFSITADTAKNQASLQLSSMTTEDSAVYYCARYHYAASHFDAWGQGTLVTVSS
VL: RIVMTQSPGSLAGSVGESVSINCKSSQSVTNDLTWYQQKPGEAPKVLITYASQRYTGVPARFSGSGYGTDFTLTINNLQAEDVGDYFCQQDYASPFTFGQGTKLEIK
Turning to B3, the “Mean IC50 (nM) (n = 3), HEK-Blue cell-based SEAP assay” value in test [4] was 0.33 nM. Also, the “IC50 ratio (IC50 candidate/IC50 VTQ2101)” value in test [5], in test [6] and in [1] was 1 ratio in each case. For the same molecule, the “IC50 (read off the curve)” value was roughly 0.3 nM in [7]; roughly 0.05 nM in [8]; roughly 1 nM in [9]; roughly 1 nM in test [10]; roughly 0.6 nM in test [11]; roughly 0.6 nM in test [2]. In addition, the “IC50 (read off the curve)” value in [3] and in test [12] was roughly 0.6 nM each time.

B4: scFv-VTQ2101-LH-Fc (scFv-VTQ2101-LH-GS18-Canine IgG2B-LALAPG-Fc) (Fc fusion)
scFv: RIVMTQSPGSLAGSVGESVSINCKSSQSVTNDLTWYQQKPGEAPKVLITYASQRYTGVPARFSGSGYGTDFTLTINNLQAEDVGDYFCQQDYASPFTFGQGTKLEIKGSTSGGGSGGGSGGGGSSEVTLQESGPGLVKPSQTLSLTCVASGFSIKSSFIHWLRQRPGRGLEWIGRIDPAFGATEYNPAFQGRFSITADTAKNQASLQLSSMTTEDSAVYYCARYHYAASHFDAWGQGTLVTVSSPKRENGRVPRPPDCPKCPAPEAAGGPSVFIFPPKPKDTLLIARTPEVTCVVVDLDPEDPEVQISWFVDGKQMQTAKTQPREEQFNGTYRVVSVLPIGHQDWLKGKQFTCKVNNKALGSPIERTISKARGQAHQPSVYVLPPSREELSKNTVSLTCLIKDFFPPDIDVEWQSNGQQEPESKYRTTPPQLDEDGSYFLYSKLSVDKSRWQRGDTFICAVMHEALHNHYTQESLSHSPG
As for B4, the “IC50 ratio (IC50 candidate/IC50 VTQ2101)” value in [1] turned out to be 2.2 ratio. In addition, the “IC50 (read off the curve)” value in test [11] lay in the range of 1 to 10 nM.

B5: scFab-Fc-VTQ2101 (scFab-VTQ2101-HLλcap-GS18-Canine IgG2B-LALAPG-Fc) (Fc fusion)
chain: RIVMTQSPGSLAGSVGESVSINCKSSQSVTNDLTWYQQKPGEAPKVLITYASQRYTGVPARFSGSGYGTDFTLTINNLQAEDVGDYFCQQDYASPFTFGQGTKLEIKRNDAQPAVYLFQPSPDQLHTGSASVVCLLNSFYPKDINVKWKVDGVIQDTGIQESVTEQDKDSTYSLSSTLTMSSTEYLSHELYSCEITHKSLPSTLIKSFQRSECGGSSGSGSGSTGTSSSGTGTSAGTTGTSASTSGSGSGGGGGSGGGGSAGGEVTLQESGPGLVKPSQTLSLTCVASGFSIKSSFIHWLRQRPGRGLEWIGRIDPAFGATEYNPAFQGRFSITADTAKNQASLQLSSMTTEDSAVYYCARYHYAASHFDAWGQGTLVTVSSASTTAPSVFPLAPSCGSTSGSTVALACLVSGYFPEPVTVSWNSGSLTSGVHTFPSVLQSSGLYSLSSMVTVPSSRWPSETFTCNVAHPASKTKVDKPVPKRENGRVPRPPDCPKCPAPEAAGGPSVFIFPPKPKDTLLIARTPEVTCVVVDLDPEDPEVQISWFVDGKQMQTAKTQPREEQFNGTYRVVSVLPIGHQDWLKGKQFTCKVNNKALGSPIERTISKARGQAHQPSVYVLPPSREELSKNTVSLTCLIKDFFPPDIDVEWQSNGQQEPESKYRTTPPQLDEDGSYFLYSKLSVDKSRWQRGDTFICAVMHEALHNHYTQESLSHSPG
As to B5, the “IC50 ratio (IC50 candidate/IC50 VTQ2101)” value in test [1] came to 1.3 ratio. Further, the “IC50 (read off the curve)” value in test [12] was roughly 0.8 nM.

B6: 8D3 chimeric canine IgGB antibody (antibody, V domains shown)
VH: EVQLQQSGAELVKPGASVKLSCTASGFNIKDSFIHWLKQRPEQGLEWIGRIDPANGNTEYDPNFQGKDTITADTSSNTAYLQVSSLTSEDTAVYYCARYYYGNSHFDCWGQGTTLTVSS
VL: RIVMNQTPKFLPISAGDRVIITCKASQSVTNDVTWYQQKPGQSPKVLIHYASNRYTGVPDRFTGSGYGTDFTFTISTVQAEDLAVYFCQQDYSSPFTFGSGTKLEIK
notes: also called chimeric 8D3
One may read the Kd as the constant that tells how readily two partners part at equilibrium. Regarding B6, in test [4], the “Mean IC50 (nM) (n = 3), HEK-Blue cell-based SEAP assay” value was 0.43 nM. Besides, in test [13], the “IC50 (read off the curve)” value is roughly 0.5 nM. In addition, the binding result in [14] is “no binding”. The Kd in test [15] is less than 0.001 nM.
